Target: ButCD complex of B. fragilis GS077 (B. fragilis GS077 (endogenous))
Test: cryo-EM structure

stoichiometry N: 2
Substance: ButCD complex of B. fragilis GS077

Source: publication PMC11467351
